First the molecules themselves.
T1: G9a and GLP (Homo sapiens, UniProt Q96KQ7+Q9H9B1)
T1 sequence (Q96KQ7 2-1210 limits assumed): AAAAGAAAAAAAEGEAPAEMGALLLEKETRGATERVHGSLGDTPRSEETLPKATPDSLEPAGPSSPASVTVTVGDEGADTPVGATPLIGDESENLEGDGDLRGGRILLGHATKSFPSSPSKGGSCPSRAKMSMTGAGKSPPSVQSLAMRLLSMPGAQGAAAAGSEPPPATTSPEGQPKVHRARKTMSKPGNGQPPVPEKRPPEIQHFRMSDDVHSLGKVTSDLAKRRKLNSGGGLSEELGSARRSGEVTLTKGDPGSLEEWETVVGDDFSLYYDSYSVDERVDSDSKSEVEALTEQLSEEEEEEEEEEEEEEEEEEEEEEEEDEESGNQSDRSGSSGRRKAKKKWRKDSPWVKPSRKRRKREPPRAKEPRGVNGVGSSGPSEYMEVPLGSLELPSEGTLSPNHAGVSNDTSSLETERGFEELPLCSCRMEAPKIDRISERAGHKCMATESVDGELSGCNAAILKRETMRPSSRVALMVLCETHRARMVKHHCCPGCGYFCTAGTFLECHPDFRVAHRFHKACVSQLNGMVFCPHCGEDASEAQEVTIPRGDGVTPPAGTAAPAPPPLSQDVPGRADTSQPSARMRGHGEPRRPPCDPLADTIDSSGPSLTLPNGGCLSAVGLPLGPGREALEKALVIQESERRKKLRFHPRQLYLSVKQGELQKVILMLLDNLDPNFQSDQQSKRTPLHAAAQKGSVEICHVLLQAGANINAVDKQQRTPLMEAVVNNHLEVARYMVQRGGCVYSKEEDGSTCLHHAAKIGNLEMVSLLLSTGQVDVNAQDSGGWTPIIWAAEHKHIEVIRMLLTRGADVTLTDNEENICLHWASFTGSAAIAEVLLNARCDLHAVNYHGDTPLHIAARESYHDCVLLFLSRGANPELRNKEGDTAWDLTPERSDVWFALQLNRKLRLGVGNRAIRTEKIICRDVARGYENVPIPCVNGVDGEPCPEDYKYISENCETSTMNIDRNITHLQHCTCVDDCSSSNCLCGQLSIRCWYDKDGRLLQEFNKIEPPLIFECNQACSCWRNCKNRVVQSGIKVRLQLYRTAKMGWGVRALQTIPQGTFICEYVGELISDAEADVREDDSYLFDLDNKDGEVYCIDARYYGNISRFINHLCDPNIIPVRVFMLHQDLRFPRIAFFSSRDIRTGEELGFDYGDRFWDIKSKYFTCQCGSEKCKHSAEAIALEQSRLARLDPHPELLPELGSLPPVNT
T1 sequence (Q9H9B1 2-1298 limits assumed): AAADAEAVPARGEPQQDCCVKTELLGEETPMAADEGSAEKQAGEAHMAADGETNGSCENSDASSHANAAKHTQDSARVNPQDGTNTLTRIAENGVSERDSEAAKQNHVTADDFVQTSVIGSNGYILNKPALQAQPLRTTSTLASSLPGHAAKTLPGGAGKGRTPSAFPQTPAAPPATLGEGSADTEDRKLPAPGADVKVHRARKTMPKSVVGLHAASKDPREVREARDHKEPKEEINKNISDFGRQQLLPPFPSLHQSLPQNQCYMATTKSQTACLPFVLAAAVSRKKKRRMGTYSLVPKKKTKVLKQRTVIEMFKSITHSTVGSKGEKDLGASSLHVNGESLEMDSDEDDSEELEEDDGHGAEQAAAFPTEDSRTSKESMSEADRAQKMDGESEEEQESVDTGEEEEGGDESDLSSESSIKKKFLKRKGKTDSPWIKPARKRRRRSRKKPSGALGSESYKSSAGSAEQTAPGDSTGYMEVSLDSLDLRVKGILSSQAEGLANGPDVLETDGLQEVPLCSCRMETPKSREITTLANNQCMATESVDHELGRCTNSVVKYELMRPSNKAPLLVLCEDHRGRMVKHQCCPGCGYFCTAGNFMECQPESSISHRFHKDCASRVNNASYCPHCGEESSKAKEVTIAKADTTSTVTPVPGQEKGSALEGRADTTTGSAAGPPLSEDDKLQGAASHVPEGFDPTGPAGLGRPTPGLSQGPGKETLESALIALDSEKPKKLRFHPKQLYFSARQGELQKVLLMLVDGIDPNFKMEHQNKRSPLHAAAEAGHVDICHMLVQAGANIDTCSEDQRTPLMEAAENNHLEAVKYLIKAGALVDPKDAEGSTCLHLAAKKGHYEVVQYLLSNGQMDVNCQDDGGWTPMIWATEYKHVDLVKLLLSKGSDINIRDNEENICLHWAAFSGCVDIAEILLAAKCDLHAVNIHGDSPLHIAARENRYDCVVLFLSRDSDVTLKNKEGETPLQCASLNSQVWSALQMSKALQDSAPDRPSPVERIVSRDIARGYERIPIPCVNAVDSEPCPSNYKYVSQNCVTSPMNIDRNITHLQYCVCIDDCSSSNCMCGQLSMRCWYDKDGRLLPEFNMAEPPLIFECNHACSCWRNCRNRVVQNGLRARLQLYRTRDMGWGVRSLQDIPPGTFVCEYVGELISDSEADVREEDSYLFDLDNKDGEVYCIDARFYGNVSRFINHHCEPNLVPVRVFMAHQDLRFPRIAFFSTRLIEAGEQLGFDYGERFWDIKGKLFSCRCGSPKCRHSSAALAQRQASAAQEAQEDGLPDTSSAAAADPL

B1: SNX9 (protein, UniProt Q9Y5X1 1-595, looked up)
Sorting nexin-9: MATKARVMYDFAAEPGNNELTVNEGEIITITNPDVGGGWLEGRNIKGERGLVPTDYVEILPSDGKDQFSCGNSVADQAFLDSLSASTAQASSSAASNNHQVGSGNDPWSAWSASKSGNWESSEGWGAQPEGAGAQRNTNTPNNWDTAFGHPQAYQGPATGDDDDWDEDWDGPKSSSYFKDSESADAGGAQRGNSRASSSSMKIPLNKFPGFAKPGTEQYLLAKQLAKPKEKIPIIVGDYGPMWVYPTSTFDCVVADPRKGSKMYGLKSYIEYQLTPTNTNRSVNHRYKHFDWLYERLLVKFGSAIPIPSLPDKQVTGRFEEEFIKMRMERLQAWMTRMCRHPVISESEVFQQFLNFRDEKEWKTGKRKAERDELAGVMIFSTMEPEAPDLDLVEIEQKCEAVGKFTKAMDDGVKELLTVGQEHWKRCTGPLPKEYQKIGKALQSLATVFSSSGYQGETDLNDAITEAGKTYEEIASLVAEQPKKDLHFLMECNHEYKGFLGCFPDIIGTHKGAIEKVKESDKLVATSKITLQDKQNMVKRVSIMSYALQAEMNHFHSNRIYDYNSVIRLYLEQQVQFYETIAEKLRQALSRFPVM
B2: C20orf43 (protein, UniProt Q9BY42 1-306, looked up)
Replication termination …: MGCDGGTIPKRHELVKGPKKVEKVDKDAELVAQWNYCTLSQEILRRPIVACELGRLYNKDAVIEFLLDKSAEKALGKAASHIKSIKNVTELKLSDNPAWEGDKGNTKGDKHDDLQRARFICPVVGLEMNGRHRFCFLRCCGCVFSERALKEIKAEVCHTCGAAFQEDDVIMLNGTKEDVDVLKTRMEERRLRAKLEKKTKKPKAAESVSKPDVSEEAPGPSKVKTGKPEEASLDSREKKTNLAPKSTAMNESSSGKAGKPPCGATKRSIADSEESEAYKSLFTTHSSAKRSKEESAHWVTHTSYCF
B3: HNRNPA3 (protein, UniProt P51991 1-378, looked up)
Heterogeneous nuclear …: MEVKPPPGRPQPDSGRRRRRRGEEGHDPKEPEQLRKLFIGGLSFETTDDSLREHFEKWGTLTDCVVMRDPQTKRSRGFGFVTYSCVEEVDAAMCARPHKVDGRVVEPKRAVSREDSVKPGAHLTVKKIFVGGIKEDTEEYNLRDYFEKYGKIETIEVMEDRQSGKKRGFAFVTFDDHDTVDKIVVQKYHTINGHNCEVKKALSKQEMQSAGSQRGRGGGSGNFMGRGGNFGGGGGNFGRGGNFGGRGGYGGGGGGSRGSYGGGDGGYNGFGGDGGNYGGGPGYSSRGGYGGGGPGYGNQGGGYGGGGGYDGYNEGGNFGGGNYGGGGNYNDFGNYSGQQQSNYGPMKGGSFGGRSSGSPYGGGYGSGGGSGGYGSRRF
B4: MCM3 (protein, UniProt P25205 2-808, looked up)
DNA replication licensing …: AGTVVLDDVELREAQRDYLDFLDDEEDQGIYQSKVRELISDNQYRLIVNVNDLRRKNEKRANRLLNNAFEELVAFQRALKDFVASIDATYAKQYEEFYVGLEGSFGSKHVSPRTLTSCFLSCVVCVEGIVTKCSLVRPKVVRSVHYCPATKKTIERRYSDLTTLVAFPSSSVYPTKDEENNPLETEYGLSVYKDHQTITIQEMPEKAPAGQLPRSVDVILDDDLVDKAKPGDRVQVVGTYRCLPGKKGGYTSGTFRTVLIACNVKQMSKDAQPSFSAEDIAKIKKFSKTRSKDIFDQLAKSLAPSIHGHDYVKKAILCLLLGGVERDLENGSHIRGDINILLIGDPSVAKSQLLRYVLCTAPRAIPTTGRGSSGVGLTAAVTTDQETGERRLEAGAMVLADRGVVCIDEFDKMSDMDRTAIHEVMEQGRVTIAKAGIHARLNARCSVLAAANPVYGRYDQYKTPMENIGLQDSLLSRFDLLFIMLDQMDPEQDREISDHVLRMHRYRAPGEQDGDAMPLGSAVDILATDDPNFSQEDQQDTQIYEKHDNLLHGTKKKKEKMVSAAFMKKYIHVAKIIKPVLTQESATYIAEEYSRLRSQDSMSSDTARTSPVTARTLETLIRLATAHAKARMSKTVDLQDAEEAVELVQYAYFKKVLEKEKKRKKRSEDESETEDEEEKSQEDQEQKRKRRKTRQPDAKDGDSYDPYDFSDTEEEMPQVHTPKTADSQETKESQKVELSESRLKAFKVALLDVFREAHAQSIGMNRLTESINRDSEEPFSSVEIQAALSKMQDDNQVMVSEGIIFLI
B5: HNRNPA2B1 (protein, UniProt P22626 1-353, looked up)
Heterogeneous nuclear …: MEKTLETVPLERKKREKEQFRKLFIGGLSFETTEESLRNYYEQWGKLTDCVVMRDPASKRSRGFGFVTFSSMAEVDAAMAARPHSIDGRVVEPKRAVAREESGKPGAHVTVKKLFVGGIKEDTEEHHLRDYFEEYGKIDTIEIITDRQSGKKRGFGFVTFDDHDPVDKIVLQKYHTINGHNAEVRKALSRQEMQEVQSSRSGRGGNFGFGDSRGGGGNFGPGPGSNFRGGSDGYGSGRGFGDGYNGYGGGPGGGNFGGSPGYGGGRGGYGGGGPGYGNQGGGYGGGYDNYGGGNYGSGNYNDFGNYNQQPSNYGPMKSGNFGGSRNMGGPYGGGNYGPGGSGGSGGYGGRSRY

The subject of one experiment is 3×MBT domain of L3MBTL1. Kind of experiment: Triple SILAC pull-down, 3xMBT/3xMBTD355N ratio (cytoplasmic, nuclear and chromatin fractions of 293T cells).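 Further: proteins quantified with MaxQuant, requiring at least two unique peptides and quantification in both label directions, normalized to the mean of proteins from a digested loading control.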 In kind it is binding, human. To be noted: SILAC ratio, pull-down 3xMBT vs 3xMBTD355N; experiment with UNC0638 in heavy SILAC media.
As to B1, the “3xMBT/D355N UNC Heavy” value is given as 2.60 log base 2.
Same read-out and setting: the result for B2 reads 1.26 log base 2.
As to B3, the “3xMBT/D355N UNC Heavy” value came out at 2.96 log base 2.
On the same count and under the same terms, next, B4: 2.59 log base 2.
On the same count and under the same terms, the result for B5 reads 3.43 log base 2.

The experiment is the same for the next values; noted with them: SILAC ratio, pull-down 3xMBT vs 3xMBTD355N; experiment with UNC0638 in light SILAC media.
Take B1: the “3xMBT/D355N UNC Light” value turned out to be 2.47 log base 2.
Regarding B2, the “3xMBT/D355N UNC Light” value is 0.71 log base 2.
Still for that read-out and setting: the result for B3 reads 3.79 log base 2; that for B4, 2.49 log base 2.
Still for that read-out and setting: the result for B5 reads 3.97 log base 2.

The next experiment concerns the target T1, G9a and GLP. Kind of experiment: Triple SILAC pull-down after UNC0638 treatment of 293T cells, DMSO/UNC0638 ratio of protein captured by 3×MBT.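 Further: mass spectrometry (Q-Exactive) SILAC quantitation, DMSO/UNC0638 ratio computed after subtracting 3×MBTD355N mutant pull-down background, only proteins with at least twofold 3×MBT over mutant signal considered.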 Type of experiment: cell-based. More on the design: cells were treated for 24 hours with UNC0638 at 2.5 μM or DMSO vehicle control; endogenous in cells; host or cells: HEK 293T. Particulars: SILAC ratio DMSO/UNC0638 of protein pulled down with 3xMBT; UNC0638 in heavy SILAC media.
With B1, the “Relative to UNC0638 UNC Heavy” value is recorded as 0.31 log base 2.
The same measure, in the same setting: the result for B2 reads 2.48 log base 2; that for B3, 0.20 log base 2; that for B4, 0.28 log base 2.
Still for that read-out and setting: next, B5: 0.07 log base 2.

The same experiment, now with this note: SILAC ratio DMSO/UNC0638 of protein pulled down with 3xMBT; UNC0638 in light SILAC media.
Turning to B1, the “Relative to UNC0638 UNC Light” value is 0.04 log base 2.
Same read-out and setting: next, B2: −0.46 log base 2.
The same measure, in the same setting: next, B3: 0.16 log base 2; B4: 0.09 log base 2.
The same measure, in the same setting: the result for B5 reads 0.28 log base 2.

The experiment is the same for the next values; noted with them: average of UNC Light and UNC Heavy experiments.
In the case of B1, the “Relative to UNC0638 Average” value came out at 0.18 log base 2.
For B2, the “Relative to UNC0638 Average” value is recorded as 1.01 log base 2.
Still for that read-out and setting: the result for B3 reads 0.18 log base 2; that for B4, 0.18 log base 2; that for B5, 0.18 log base 2.

The values are drawn from patent publication US20140274782A1, “AFFINITY REAGENTS AND METHODS FOR DETECTION, PURIFICATION, AND PROTEOMIC ANALYSIS OF METHYLATED PROTEINS” (The Board of Trustees of the Leland Stanford Junior …, priority 2013, published 2014).
